According to patent publication US7977317B2, “Compositions and methods for modulating blood-brain barrier transport” (Raptor Pharmaceutical Inc., priority 2001, dated 2011):

B1: p97: recombinant human melanotransferrin (p97), provided by Synapse Technologies (protein, UniProt P08582 20-709, looked up)
Melanotransferrin: GMEVRWCATSDPEQHKCGNMSEAFREAGIQPSLLCVRGTSADHCVQLIAAQEADAITLDGGAIYEAGKEHGLKPVVGEVYDQEVGTSYYAVAVVRRSSHVTIDTLKGVKSCHTGINRTVGWNVPVGYLVESGRLSVMGCDVLKAVSDYFGGSCVPGAGETSYSESLCRLCRGDSSGEGVCDKSPLERYYDYSGAFRCLAEGAGDVAFVKHSTVLENTDGKTLPSWGQALLSQDFELLCRDGSRADVTEWRQCHLARVPAHAVVVRADTDGGLIFRLLNEGQRLFSHEGSSFQMFSSEAYGQKDLLFKDSTSELVPIATQTYEAWLGHEYLHAMKGLLCDPNRLPPYLRWCVLSTPEIQKCGDMAVAFRRQRLKPEIQCVSAKSPQHCMERIQAEQVDAVTLSGEDIYTAGKTYGLVPAAGEHYAPEDSSNSYYVVAVVRRDSSHAFTLDELRGKRSCHAGFGSPAGWDVPVGALIQRGFIRPKDCDVLTAVSEFFNASCVPVNNPKNYPSSLCALCVGDEQGRNKCVGNSQERYYGYRGAFRCLVENAGDVAFVRHTTVFDNTNGHNSEPWAAELRSEDYELLCPNGARAEVSQFAACNLAQIPPHAVMVRPDTNIFTVYGLLDKAQDLFGDDHNKNGFKMFDSSNYHGQDLLFKDATVRAVPVGEKTTYRGWLGLDYVAALEGMSSQQC
B2: lactoferrin: lactoferrin (Lf), LRP ligand used as competitor (protein, UniProt P02788 20-710, looked up)
Lactotransferrin: GRRRSVQWCAVSQPEATKCFQWQRNMRKVRGPPVSCIKRDSPIQCIQAIAENRADAVTLDGGFIYEAGLAPYKLRPVAAEVYGTERQPRTHYYAVAVVKKGGSFQLNELQGLKSCHTGLRRTAGWNVPIGTLRPFLNWTGPPEPIEAAVARFFSASCVPGADKGQFPNLCRLCAGTGENKCAFSSQEPYFSYSGAFKCLRDGAGDVAFIRESTVFEDLSDEAERDEYELLCPDNTRKPVDKFKDCHLARVPSHAVVARSVNGKEDAIWNLLRQAQEKFGKDKSPKFQLFGSPSGQKDLLFKDSAIGFSRVPPRIDSGLYLGSGYFTAIQNLRKSEEEVAARRARVVWCAVGEQELRKCNQWSGLSEGSVTCSSASTTEDCIALVLKGEADAMSLDGGYVYTAGKCGLVPVLAENYKSQQSSDPDPNCVDRPVEGYLAVAVVRRSDTSLTWNSVKGKKSCHTAVDRTAGWNIPMGLLFNQTGSCKFDEYFSQSCAPGSDPRSNLCALCIGDEQGENKCVPNSNERYYGYTGAFRCLAENAGDVAFVKDVTVLQNTDGNNNEAWAKDLKLADFALLCLDGKRKPVTEARSCHLAMAPNHAVVSRMDKVERLKQVLLHQQAKFGRNGSDCPDKFCLFQSETKNLLFNDNTECLARLHGKTTYEKYLGPQYVAGITNLKKCSTSPLLEACEFLRK

Key:
BBCECs = assay: Binding of [125I]-p97 to BBCECs with saponin treatment (Scatchard); set-up: species or system bovine; details: 200-fold molar excess, after saponin treatment (FIG. 12b)
Description: FIG. 12 illustrates the Binding of p97 to BBCE cells. FIG. 12a, p97 binding experiments were performed with BBCECs that were either pre-incubated in Ringer-Hepes solution or pre-treated with saponin. BBCECs were then incubated for 2 hrs at 4° C. with [^125I]-p97 (25 nM). At the end of the incubation, the filters were gently washed with cold PBS and then the radioactivity associated with the ECs was quantified; FIG. 12b, The binding of [^125I]-p97 was also performed with increasing concentrations of unlabelled p97 following saponin treatment. The results were expressed as the percentage of the [^125I]-p97 binding measured in the absence of unlabelled p97; FIG. 12c, The results were also transformed with a Scatchard plot and expressed as the ratio of bound p97/free p97 as a function of the bound p97 (n=5).
Transcytosis and binding experiments. […] At the end of the experiment, [^125I]-p97 was quantitated in 500 μl of the lower chamber of each well by TCA precipitation. We also measured p97 in 50 μl of the lower chamber of each well by SDS-PAGE according to the method of Laemmli (Laemmli, U.K. Nature; 227: 680-685 (1970)). Proteins were separated on 7.5% acrylamide gels, stained with Coomassie Blue, dried and analysed by densitometry. […] After 2 hrs at 4° C., ECs were gently washed, and the [^125I]-p97 attached to the ECs was quantified in a liquid scintillation counter. […]

LRP1B = assay: RT-PCR after p97 and RAP treatments in U-87 cells: LRP1B; type: cell-based, human; details: 72 hours, RT-PCR (FIG. 35)
Description: FIG. 34. Effect of p97 and RAP treatments in U-87 cells. A. Cells (2×10^5) were plated onto six-multiwell microplates and grown at 37° C. under 5% CO2 with optimal culture medium supplemented with serum for 4 days. Treatment was performed in serum free medium for 72 hours. RNA isolation and RT-PCR were performed as described in the Examples. B. LRP/LRP1B was immunodetected in cells lysates as described in the Examples. […] (N=2 for p97 treatment), (n=1 for RAP treatment)
(§1) FIG. 35. Effect of p97 and RAP treatments in U-87 cells (RT-PCR). Cells (2×10^5) were plated onto six-multiwell microplates and grown at 37° C. under 5% CO2 with optimal culture medium supplemented with serum for 4 days. Treatment was performed in serum free medium for 72 hours. RNA isolation and RT-PCR were performed as described in the Examples. The amplified PCR products were electrophoresed on a 2% agarose gel and visualized under ultraviolet light. (n=2 for p97), (n=1 for RAP)
RNA extraction. Cells in six-wells plate or in 75 cm^2 plastic tissue culture flasks were grown at 37° C. under 5% CO2 with optimal culture medium to 80-90% confluence. Total cellular RNA was preserved in Trizol (Gibco BRL, Burlington, ON). The solution are frozen at −80° C. until extraction. The solution was defroze and mixed with 5:1 chloroform for 3 minutes at room temperature. The suspension was centrifugated at 12000 g at 4° C. […]

[1] = tested on: endogenous melanotransferrin; assay: RT-PCR after p97 treatment in U-87 cells: endogenous melanotransferrin; type: cell-based, human; details: RT-PCR (FIG. 36)
Description: as §1, with “36.” for “35.”, “(RT-PCR) on endogenous melanotransferrin.” for “(RT-PCR).”, “(2×105)” for “(2×10^5)”, “Treatment with p97 and RAP” for “Treatment”, “(n=1).” for “(n=2 for p97), (n=1 for RAP)”
RNA extraction. Cells in six-wells plate or in 75 cm^2 plastic tissue culture flasks were grown at 37° C. under 5% CO2 with optimal culture medium to 80-90% confluence. Total cellular RNA was preserved in Trizol (Gibco BRL, Burlington, ON). The solution are frozen at −80° C. until extraction. The solution was defroze and mixed with 5:1 chloroform for 3 minutes at room temperature. The suspension was centrifugated at 12000 g at 4° C. The clear supernatant was collected then mixed with 1:1 of isopropanol for 15 minutes at room temperature. The mix was centrifugated at 12000×g for 10 min at 4° C. The pellets was washed with 70% ethanol and dried before resuspended in RNase Free H2O.
RT-PCR. RT-PCR was performed for members of the LDL-R family: LRP, LRP1B, megalin, LDL, VLDL, LRP8, LR11, RAP, LR3, cubulin and P97. […]

U-87 cells = assay: Morphology of U-87 cells after p97 treatment; type: cell-based, human; details: FIG. 33
LRP = LRP (Homo sapiens, UniProt Q07954); details: Tables 1-3; cited from earlier work
Megalin = Megalin (Homo sapiens, UniProt P98164); details: Tables 1-3; cited from earlier work
Megalin, sequence (P98164 26-4655, species assumed): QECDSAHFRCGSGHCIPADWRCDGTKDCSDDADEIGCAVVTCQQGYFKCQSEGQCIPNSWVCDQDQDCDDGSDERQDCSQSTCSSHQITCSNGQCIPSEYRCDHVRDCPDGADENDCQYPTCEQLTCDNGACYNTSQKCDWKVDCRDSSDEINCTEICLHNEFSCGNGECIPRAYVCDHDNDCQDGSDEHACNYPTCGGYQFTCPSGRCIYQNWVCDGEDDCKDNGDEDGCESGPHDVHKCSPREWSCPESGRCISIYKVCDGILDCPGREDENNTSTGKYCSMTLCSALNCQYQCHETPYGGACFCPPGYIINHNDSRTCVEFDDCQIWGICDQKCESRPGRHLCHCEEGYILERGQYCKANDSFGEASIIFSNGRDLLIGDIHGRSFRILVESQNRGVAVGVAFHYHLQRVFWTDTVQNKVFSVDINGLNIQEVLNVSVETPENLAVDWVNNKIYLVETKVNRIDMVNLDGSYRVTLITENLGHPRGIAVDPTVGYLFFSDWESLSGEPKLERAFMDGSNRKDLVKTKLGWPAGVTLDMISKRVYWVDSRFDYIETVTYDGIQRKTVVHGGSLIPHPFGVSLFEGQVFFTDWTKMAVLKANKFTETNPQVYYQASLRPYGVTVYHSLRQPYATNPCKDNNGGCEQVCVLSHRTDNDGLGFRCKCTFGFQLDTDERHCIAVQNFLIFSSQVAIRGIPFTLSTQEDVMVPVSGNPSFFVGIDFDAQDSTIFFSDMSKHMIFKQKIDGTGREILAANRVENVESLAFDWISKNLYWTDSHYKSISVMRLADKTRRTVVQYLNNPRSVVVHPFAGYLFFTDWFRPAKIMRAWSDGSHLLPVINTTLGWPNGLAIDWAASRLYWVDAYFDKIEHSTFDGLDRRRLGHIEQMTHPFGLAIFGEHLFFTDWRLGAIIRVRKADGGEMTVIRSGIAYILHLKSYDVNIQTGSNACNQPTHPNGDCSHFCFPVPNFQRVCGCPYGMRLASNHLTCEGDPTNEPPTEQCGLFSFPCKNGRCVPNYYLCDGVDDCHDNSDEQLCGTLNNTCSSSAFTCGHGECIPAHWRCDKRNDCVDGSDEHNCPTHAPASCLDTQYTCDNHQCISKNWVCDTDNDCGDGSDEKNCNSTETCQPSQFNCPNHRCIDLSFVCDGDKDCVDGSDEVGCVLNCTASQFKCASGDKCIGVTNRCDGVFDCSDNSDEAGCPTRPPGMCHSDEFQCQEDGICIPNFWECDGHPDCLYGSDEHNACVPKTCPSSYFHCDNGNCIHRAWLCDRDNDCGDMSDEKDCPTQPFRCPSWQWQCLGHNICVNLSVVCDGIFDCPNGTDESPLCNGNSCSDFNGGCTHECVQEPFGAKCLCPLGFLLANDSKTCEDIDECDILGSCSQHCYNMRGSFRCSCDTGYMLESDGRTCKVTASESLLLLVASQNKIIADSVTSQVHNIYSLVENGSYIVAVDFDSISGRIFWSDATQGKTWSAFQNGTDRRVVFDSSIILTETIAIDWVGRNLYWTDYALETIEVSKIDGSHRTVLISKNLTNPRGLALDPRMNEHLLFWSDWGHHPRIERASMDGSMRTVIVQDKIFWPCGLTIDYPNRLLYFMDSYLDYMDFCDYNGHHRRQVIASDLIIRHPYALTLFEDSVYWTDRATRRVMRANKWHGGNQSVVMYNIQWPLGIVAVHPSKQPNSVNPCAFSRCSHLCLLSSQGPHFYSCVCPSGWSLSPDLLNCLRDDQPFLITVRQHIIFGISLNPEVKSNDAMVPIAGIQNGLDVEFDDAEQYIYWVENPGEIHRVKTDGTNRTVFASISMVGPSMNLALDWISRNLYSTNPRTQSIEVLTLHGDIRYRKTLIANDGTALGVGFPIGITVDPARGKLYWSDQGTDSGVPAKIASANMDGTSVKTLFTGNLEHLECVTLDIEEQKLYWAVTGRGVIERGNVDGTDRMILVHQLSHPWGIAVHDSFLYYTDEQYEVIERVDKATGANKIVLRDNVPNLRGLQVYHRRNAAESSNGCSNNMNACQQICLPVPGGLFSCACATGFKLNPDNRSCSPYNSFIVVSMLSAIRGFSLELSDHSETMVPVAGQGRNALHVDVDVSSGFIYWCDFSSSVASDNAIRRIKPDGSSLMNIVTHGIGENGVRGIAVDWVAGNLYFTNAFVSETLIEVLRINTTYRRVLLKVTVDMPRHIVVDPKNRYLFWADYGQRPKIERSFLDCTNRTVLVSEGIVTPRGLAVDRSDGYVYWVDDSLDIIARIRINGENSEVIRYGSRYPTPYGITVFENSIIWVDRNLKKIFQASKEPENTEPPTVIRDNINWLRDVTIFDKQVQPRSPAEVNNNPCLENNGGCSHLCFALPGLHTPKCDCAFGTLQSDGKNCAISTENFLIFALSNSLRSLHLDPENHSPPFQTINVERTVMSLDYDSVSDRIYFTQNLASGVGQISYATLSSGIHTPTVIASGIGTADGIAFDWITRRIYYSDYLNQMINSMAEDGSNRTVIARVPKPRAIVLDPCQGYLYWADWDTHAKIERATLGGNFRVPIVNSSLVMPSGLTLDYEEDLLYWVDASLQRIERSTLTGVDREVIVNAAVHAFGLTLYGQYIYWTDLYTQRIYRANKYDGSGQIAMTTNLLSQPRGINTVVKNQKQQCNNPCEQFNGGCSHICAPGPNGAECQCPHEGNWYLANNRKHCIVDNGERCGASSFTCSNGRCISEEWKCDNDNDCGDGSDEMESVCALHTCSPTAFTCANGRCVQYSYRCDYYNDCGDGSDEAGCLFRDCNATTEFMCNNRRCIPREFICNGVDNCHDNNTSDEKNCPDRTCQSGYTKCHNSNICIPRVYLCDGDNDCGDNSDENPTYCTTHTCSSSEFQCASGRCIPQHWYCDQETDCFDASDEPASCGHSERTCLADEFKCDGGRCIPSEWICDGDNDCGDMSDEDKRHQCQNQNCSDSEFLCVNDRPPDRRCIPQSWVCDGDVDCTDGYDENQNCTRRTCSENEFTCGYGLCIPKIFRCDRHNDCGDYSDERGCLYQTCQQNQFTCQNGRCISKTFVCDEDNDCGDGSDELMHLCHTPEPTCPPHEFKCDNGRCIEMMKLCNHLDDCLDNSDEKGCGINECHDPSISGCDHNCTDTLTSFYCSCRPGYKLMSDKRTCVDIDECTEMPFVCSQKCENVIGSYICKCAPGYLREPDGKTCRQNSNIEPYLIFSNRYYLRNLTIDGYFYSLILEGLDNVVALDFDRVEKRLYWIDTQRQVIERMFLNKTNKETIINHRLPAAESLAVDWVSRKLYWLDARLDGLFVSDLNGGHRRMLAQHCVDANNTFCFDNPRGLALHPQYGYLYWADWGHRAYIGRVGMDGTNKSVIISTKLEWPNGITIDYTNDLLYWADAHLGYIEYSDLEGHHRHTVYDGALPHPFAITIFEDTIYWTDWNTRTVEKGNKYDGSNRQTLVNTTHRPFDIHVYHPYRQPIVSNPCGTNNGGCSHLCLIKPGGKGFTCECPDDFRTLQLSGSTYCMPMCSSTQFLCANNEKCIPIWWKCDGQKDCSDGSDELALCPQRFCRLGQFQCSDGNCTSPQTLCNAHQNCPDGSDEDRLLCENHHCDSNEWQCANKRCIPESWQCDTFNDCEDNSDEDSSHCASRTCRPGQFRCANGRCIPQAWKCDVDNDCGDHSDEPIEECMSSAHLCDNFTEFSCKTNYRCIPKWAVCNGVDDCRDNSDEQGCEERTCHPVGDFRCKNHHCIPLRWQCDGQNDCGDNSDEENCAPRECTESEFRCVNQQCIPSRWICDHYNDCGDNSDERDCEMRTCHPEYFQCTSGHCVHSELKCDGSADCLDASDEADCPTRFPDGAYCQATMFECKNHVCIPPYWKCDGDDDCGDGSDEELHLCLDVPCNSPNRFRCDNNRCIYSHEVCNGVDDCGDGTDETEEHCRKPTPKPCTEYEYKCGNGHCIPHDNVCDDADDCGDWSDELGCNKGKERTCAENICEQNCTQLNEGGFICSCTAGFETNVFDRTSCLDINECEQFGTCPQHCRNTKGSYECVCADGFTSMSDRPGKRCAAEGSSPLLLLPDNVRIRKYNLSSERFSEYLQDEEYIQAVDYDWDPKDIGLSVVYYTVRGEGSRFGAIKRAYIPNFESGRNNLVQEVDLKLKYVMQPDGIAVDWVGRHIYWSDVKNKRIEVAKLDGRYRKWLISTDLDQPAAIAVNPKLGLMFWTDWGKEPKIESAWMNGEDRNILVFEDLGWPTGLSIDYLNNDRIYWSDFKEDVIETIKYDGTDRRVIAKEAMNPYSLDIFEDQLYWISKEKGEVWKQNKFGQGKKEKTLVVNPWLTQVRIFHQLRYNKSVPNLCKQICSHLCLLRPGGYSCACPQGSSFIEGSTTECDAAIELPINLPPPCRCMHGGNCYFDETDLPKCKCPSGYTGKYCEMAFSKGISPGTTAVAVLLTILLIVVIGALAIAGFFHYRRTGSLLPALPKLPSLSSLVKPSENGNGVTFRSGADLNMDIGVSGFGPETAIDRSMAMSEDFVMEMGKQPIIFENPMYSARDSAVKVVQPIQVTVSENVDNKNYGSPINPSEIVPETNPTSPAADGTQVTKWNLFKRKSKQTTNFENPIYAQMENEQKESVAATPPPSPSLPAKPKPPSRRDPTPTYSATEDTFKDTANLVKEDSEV

Molecule	Inhibition of radiolabel ([125I]-p97) binding by unlabelled p97 (BBCECs)	Expression of the LRP1B receptor (LRP1B)	Expression of endogenous p97 [1]	Effect on the morphology of U-87 cells (U-87 cells)	Binding to LRP (LRP)	Binding to Megalin (Megalin)
B1	approximately 50%	induces the expression	appears to induce its own expression	no discernable effect on the morphology	–	–
B2	–	–	–	–	Yes	Yes
